One test deals with T1, hA2b receptor (human, UniProt P29275 1-332).
T1 construct: whole, on cells; also called adenosine A2B receptor
T1 sequence (looked up): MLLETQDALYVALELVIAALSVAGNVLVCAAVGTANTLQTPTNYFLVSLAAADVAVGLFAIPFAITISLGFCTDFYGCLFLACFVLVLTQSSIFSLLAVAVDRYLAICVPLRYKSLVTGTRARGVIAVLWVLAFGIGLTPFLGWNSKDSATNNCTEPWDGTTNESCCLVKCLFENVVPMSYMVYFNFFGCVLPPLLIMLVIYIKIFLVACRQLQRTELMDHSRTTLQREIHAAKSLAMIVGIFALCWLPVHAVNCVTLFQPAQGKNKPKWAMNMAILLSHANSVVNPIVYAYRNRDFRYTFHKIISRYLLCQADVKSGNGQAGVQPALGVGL
Put plainly: cell binding on hA2b HEK293T cells, one bar per antibody; the y axis has no label or unit and the antibody concentration is not given.

The target in test [1] is T2, Adenosine A2A receptor (human) (human, UniProt P29274 1-412).
T2 construct: also called hA2a; hA2a receptor
Nature of the test: cell binding titration from 100 nM, RL1-H MFI; panel 'Immune Library to A2a protein + ZM241385'.
Description: Purified A2a immunoglobulins from Tables 15-18 were assayed for binding in a titration from 100 nM.

T2 sequence (P29274 whole entry): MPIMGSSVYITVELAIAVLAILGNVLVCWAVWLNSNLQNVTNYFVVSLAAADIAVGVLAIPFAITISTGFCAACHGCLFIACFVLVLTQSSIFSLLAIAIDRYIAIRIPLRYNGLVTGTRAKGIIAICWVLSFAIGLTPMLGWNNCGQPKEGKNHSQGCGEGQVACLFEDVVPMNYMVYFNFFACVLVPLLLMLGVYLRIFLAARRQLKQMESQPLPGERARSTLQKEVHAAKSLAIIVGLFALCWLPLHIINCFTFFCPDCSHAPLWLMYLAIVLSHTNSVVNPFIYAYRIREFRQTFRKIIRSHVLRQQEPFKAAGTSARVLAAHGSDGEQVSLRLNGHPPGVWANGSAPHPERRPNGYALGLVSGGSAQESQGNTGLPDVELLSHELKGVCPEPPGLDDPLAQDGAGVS

B1: A2A-75 (antibody, V domains shown)
VH: QVQLQESGPGLVKPSGTLSLTCAVSGGSISSSNWWSWVRQPPGKGLEWIGEIYHSGNTNYNPSLKSRVTMSVDKSKNQFSLNLHSVTAADTAVYYCAREVVSGMIGTIFDYWGQGTLVTVSS
VL: ELVMTQFPSSLSASVGDRVTITCRASQSISSYLNWYQQKPGKAPKLLIYAASSLQSGVPSRFSGSGSGTDFTLTISSLQPEDFATYYCQQANSFPITFGQGTRLEIK
notes: Tested as IgG
In the case of B1, the binding result with hA2b receptor is on record as “no binding”.

B2: A2A – 80 (antibody, V domains shown)
VH: QVQLVQSGGGLVKPGGSLRLSCAASGFTISTYDIYWVRQATGKGLEWVSAIGTAGDTYYPGSVKGRFTISRENAKNSLYLQMNSLRAGDTAVYYCASGYNWIFDYWGQGTLVTVSS
VL: ELTLTQSPGTLSLSPGERATLSCRASQSVSSNLAWYQQKPGQAPRLLIYGASTRATGTPARFSGSGSGTEFTLTISSLQSEDFAVYYCQQYGSSPPTFGQGTRLEIK
notes: panel 'Immune Library to A2a protein + ZM241385'
As for B2, in test [1], the binding result is reported as “binds”.

B3: A2A-83 (antibody, V domains shown)
VH: EVQRVQSGAELVKPGASVKISCKASGYAFSSYWMNWVKQRPGKGLEWIGQIYPGDGDTNYNGKFEGKATLTADKSSSTAYMQLTSLTSDDSAVYYCARGAYWGQGTTLTVSS
VL: DIQMKQSQKFMSTSVGDRVSVTCKASQNVGTNVAWYQQKPGQSPKALIYSASYRYSGVPDRFTGSGSGTDFTLTISNVQSGDLAEYFCQQYNSYPLTFGAGTKLEIK
notes: Tested as IgG
Regarding B3, the binding result with hA2b receptor is “binds”.

B4: A2A-88 (antibody)
heavy chain variable region: EVQLVESGGGLVKPGGSLRLSCAASGFTFRTYGMHWVRQAPGKGLEWVAVISAEGSNKYYADSVKGRFTISRDNSKNTLYLQMNSLRAEDTAVYYCARDGRGSLPRPKGGFIGALSFHWPFGRWLGGSYGTYDSSEDSGGAFDIWGQGTLVTVSS
light chain variable region: QSVLTQPPSVSAAPGQKVTISCSGISSNIGNNYVSWYQQLPGTAPKLLIYDNNKRASGIPDRFSGSKSGTSATLGITGLQTGDEADYYCGTWDTSLSAGVFGGGTKLTVL
As for B4, in the test with hA2b receptor, the binding result is “binds”.

B5: A2A – 79 (antibody, V domains shown)
VH: QVQLQESGGGVVRPGGSLRLSCAASGFTFDDYGMSWVRQVPGKGLEWVSGITWNGDRSGYADSVKGRFTISRDNAKNSLYLQMNSLRAEDTALYYCVRDGLTGIFDYWGQGTLVTVSS
VL: ELTLTQSPATLSVSPGERATLSCRASQSVSSYLAWYQQKPGQAPRLLIYGASSRATGIPDRFSGSGSGTDFTLTISRLEPEDFAVYYCQQYGNSYTFGQGTKVDIK
notes: as for B2
On to B5, for which, in test [1], the binding result was “binds”.

B6: A2A-78 (antibody, V domains shown)
VH: EVQLLESGGGLVQPGGSLRLSCAASGFTFSAYDIYWVRQPTGKGLEWVSAIGTAGDTYYPGSVKGRFIISRESAKNSVYLQMNSLRAGDTAVYYCAVGYNWVFDLWGQGTLVTVSS
VL: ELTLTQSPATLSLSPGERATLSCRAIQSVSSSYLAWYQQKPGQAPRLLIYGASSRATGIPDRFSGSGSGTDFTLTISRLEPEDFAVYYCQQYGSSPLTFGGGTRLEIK
notes: Tested as IgG
In general, EC50 (read off the curve) refers to the midpoint of the concentration-response curve. Turning to B6, in test [1], the concentration giving a half-maximal response (EC50 (read off the curve)) was roughly 5 nM.

B7: A2A-35 (antibody, V domains shown)
VH: EVQLVESGGGLVKPGGSLRLSCAASGFTFSTYGMSWVRQAPGKGLEWVSGISGSGGSTNYADSVKGRFTISRDNSKNTLYLQMNSLRAEDTAVYYCAAARGKWRWRLGRRYDYWGQGTLVTVSS
VL: DIQMTQSPSSLSASVGDRVTITCRASQSIGRYLNWYQQKPGKAPKLLIYAASSLHSGVPSRFSGSGSGTDFTLTISSLQPEDFATYYCQQSYVTPWTFGGGTKVEIK
notes: Tested as IgG
For B7, the binding result with hA2b receptor is given as “binds”.

B8: A2A-19 (antibody, V domains shown)
VH: EVQLVESGGGLVKPGGSLRLSCAASGFTFSGYAMNWVRQAPGKGLEWVSTISGSGASTYYADSVKGRFTISRDNSKNTLYLQMNSLRAEDTAVYYCAAARGYKRWRLGRRYDYWGQGTLVTVSS
VL: DIQMTQSPSSLSASVGDRVTITCRASQSISDYLNWYQQKPGKAPKLLIYTASTLQSGVPSRFSGSGSGTDFTLTISSLQPEDFATYYCEQSYSTPWTFGGGTKLEIK
notes: Tested as IgG
With B8, the binding result with hA2b receptor was “binds”.

The record behind these values is patent publication US20250145724A1 (TWIST BIOSCIENCE, published 2025).
